Source: patent publication US20110065645A1, “Compositions and Methods for Modulating Neuron Degeneration and Neuron Guidance” (The Regents of the University of California, priority 2009, published 2011)
“Also recorded” adds a separate entry of the source.

B1: Wnt7b: Wnt family protein expressed by cell clumps in the TH axon explant assay (protein, UniProt P56706 25-349, looked up)
Protein Wnt-7b: ALSSVVALGANIICNKIPGLAPRQRAICQSRPDAIIVIGEGAQMGINECQYQFRFGRWNCSALGEKTVFGQELRVGSREAAFTYAITAAGVAHAVTAACSQGNLSNCGCDREKQGYYNQAEGWKWGGCSADVRYGIDFSRRFVDAREIKKNARRLMNLHNNEAGRKVLEDRMQLECKCHGVSGSCTTKTCWTTLPKFREVGHLLKEKYNAAVQVEVVRASRLRQPTFLRIKQLRSYQKPMETDLVYIEKSPNYCEEDAATGSVGTQGRLCNRTSPGADGCDTMCCGRGYNTHQYTKVWQCNCKFHWCCFVKCNTCSERTEVFTCK
B2: Wnt3a: purified Wnt3a protein; also expressed by cell clumps in explant assays (protein, UniProt P56704 19-352, looked up)
Protein Wnt-3a: SYPIWWSLAVGPQYSSLGSQPILCASIPGLVPKQLRFCRNYVEIMPSVAEGIKIGIQECQHQFRGRRWNCTTVHDSLAIFGPVLDKATRESAFVHAIASAGVAFAVTRSCAEGTAAICGCSSRHQGSPGKGWKWGGCSEDIEFGGMVSREFADARENRPDARSAMNRHNNEAGRQAIASHMHLKCKCHGLSGSCEVKTCWWSQPDFRAIGDFLKDKYDSASEMVVEKHRESRGWVETLRPRYTYFKVPTERDLVYYEASPNFCEPNPETGSFGTRDRTCNVSSHGIDGCDLLCCGRGHNARAERRREKCRCVFHWCCYVSCQECTRVYDVHTCK

Legend:
[1] = test system: PKA; test: Western blot of activated phospho-PKA (Thr197) in dissociated commissural neurons; assay type: cell-based, rat; conditions: Shh-N 2.5 μg/ml for one hour; KT5720 25 μM for 15 minutes
Protocol: To confirm that PKA activity can be reduced in commissural neurons exposed to Shh, we treated dissociated spinal cord commissural neurons with Shh and analyzed the level of activated PKA. 24 hr after plating, commissural neurons were serum starved overnight and then treated with 2.5 μg/ml (150 nM) of Shh-N recombinant protein (R&D) for one hour prior to lysate collection. Forskolin (25 μM), and the PKA inhibitor, KT5720 (25 μM) were added to the commissural neuron culture as controls for 15 minutes before lysis. We then tested these lysates for levels of activated PKA with an antibody that specifically recognizes an activated form of the catalytic domain of PKA (phosphorylated at Thr197).
Dissociated commissural neuronal culture. Spinal cords were isolated from rat E13 embryos and commissural neurons were dissociated as previously described.^(8) In brief, embryos were treated with Dispase I (0.25 mg/ml; D4818, Sigma) for 5 minutes prior isolation of spinal cords, followed by collection of spinal cord dorsal domains by microdissection and incubation with Trypsin (1 mg/ml; T47-99, Sigma) for 10-12 min in a 37° C. water bath. The tissue was then triturated with flamed glass pipettes and a single cell suspension was plated on poly-D-lysine (PDL; 20 μg/ml) and laminin (10 μg/ml) coated coverslips or 12 well plates (Corning). More than 90% cells in these cultures express TAG-1, a marker for spinal cord commissural neurons (FIG. 35B). 10^5 dissociated cells were plated on PDL/laminin coated coverslips and cultured for 24 hrs before processed for immunohistochemistry as described above. For Western blot analysis, 10^6 dissociated cells were plated on PDL/laminin coated 12-well tissue culture plates and cultured initially for 24 hrs in dorsal explant media (replenished daily) then changed to low serum medium overnight prior to treatments. […]

[2] = test system: pre-crossing commissural axons; test: Precrossing commissural explant assay in collagen gel; assay type: cell-based, rat; conditions: collagen gel containing Netrin-1 and Shh expressing COS-7 cells
Source text: Shh activates Semaphorin repulsion in commissural axons. We investigated the mechanisms by which Semaphorin repulsion in commissural axons is switched on during spinal cord midline pathfinding. Commissural neuron cell bodies are located in the dorsal spinal cord and initially extend axons to the ventral midline, the floor plate, in the process of several days (from late E8.9/early E9.5 in mouse and late E10 and E11 in rats till at least E12.5 in mouse and E14 in rat). The commissural axons in the rostral (anterior) spinal cord differentiate and their axons develop earlier than their caudal (posterior) counterparts. At each axis level, the more dorsal populations tend to differentiate and extend axons later than the ventral population in the dorsal spinal cord during this stage of development. […] To quantify these effects, the total length of axons extending towards (proximal) or away (distal) from cell aggregates (FIG. 31B) was calculated in each experiment as the ratio of axons growing proximally (P) divided by axons growing distally (D) (FIG. 31i). […]
Precrossing commissural explant assay. […] For quantification the total length of axon bundle was measured in the proximal (P) and distal (D) quadrants as depicted in FIG. 31B. […]

[3] = target: Fzd3-mCherry (mouse) (UniProt Q61086); test: cell-based or functional assay
[4] = target: Fzd3-EGFP (mouse) (UniProt Q61086); test: cell-based or functional assay
[5] = test system: TH axons; test: mdDA explant assay with Wnt-expressing cell clumps, anti-TH staining; assay type: cell-based; conditions: embryonic mdDA explants from ventral midbrain
Source text: FIG. 7. Multiple Wnts attract TH axons in explant assays. FIG. 7 depicts histogram showing that embryonic mdDA explants dissected out from the ventral midbrain and cultured with cell clumps expressing various Wnts.
3c: Use of explant assays to test the effects of Wnts on mdDA and 5-HT axon growth and guidance. To directly address whether Wnts regulate the guidance of these monoaminergic axons, we use explant assays to test the function of the identified Wnts and determine whether they are attractive or repulsive. […] We plan to continue test additional Wnts especially those which are expressed in the brainstem and the forebrain targets using the same assay.

[6] = test system: β-catenin; test: β-catenin immunostaining in commissural axon growth cones; assay type: cell-based; conditions: bath application; LiCl 2 mM
Source text: To understand how atypical PKC/Par pathway regulates axon guidance, we set out to determine the subcellular localization of aPKC, their substrates and downstream cellular effectors. […] Thus, our high-resolution confocal imaging detects a tendency of β-catenin being concentrated to one side of the growth cone (FIG. 9A). It is possible that there is low level of Wnt proteins in the culture (many neurons express Wnts). […] Therefore, it is also possible that intrinsic aPKC signaling can create chirality within the growth cone with out extrinsic signals. Such intrinsic polarity may then robustly regulate cellular morphology upon directional instructions from the environment such as a Wnt gradient. It is well known that GSK3β phosphorylates β-catenin, which then leads to proteosome-mediated degradation of β-catenin. And it is also known that GSK3β is phosphorylated and inhibited by PKCζ^(1,2). Therefore, inhibiting GSK3β or the proteosome activity generally should increase β-catenin level throughout the growth cone, canceling the asymmetry. […] We are now testing the hypothesis that Wnt proteins may locally activate PKCζ, which then inhibits GSK3β and locally stabilizes β-catenin, which is part of the asymmetric cellular mechanism leading to directional choice of a growth cone. We examine the localization of β-catenin in post-crossing commissural axon growth cones in the “post-crossing” assay and “open-book” assays.

Chain of Fzd3-EGFP (mouse) (Q61086 23-666): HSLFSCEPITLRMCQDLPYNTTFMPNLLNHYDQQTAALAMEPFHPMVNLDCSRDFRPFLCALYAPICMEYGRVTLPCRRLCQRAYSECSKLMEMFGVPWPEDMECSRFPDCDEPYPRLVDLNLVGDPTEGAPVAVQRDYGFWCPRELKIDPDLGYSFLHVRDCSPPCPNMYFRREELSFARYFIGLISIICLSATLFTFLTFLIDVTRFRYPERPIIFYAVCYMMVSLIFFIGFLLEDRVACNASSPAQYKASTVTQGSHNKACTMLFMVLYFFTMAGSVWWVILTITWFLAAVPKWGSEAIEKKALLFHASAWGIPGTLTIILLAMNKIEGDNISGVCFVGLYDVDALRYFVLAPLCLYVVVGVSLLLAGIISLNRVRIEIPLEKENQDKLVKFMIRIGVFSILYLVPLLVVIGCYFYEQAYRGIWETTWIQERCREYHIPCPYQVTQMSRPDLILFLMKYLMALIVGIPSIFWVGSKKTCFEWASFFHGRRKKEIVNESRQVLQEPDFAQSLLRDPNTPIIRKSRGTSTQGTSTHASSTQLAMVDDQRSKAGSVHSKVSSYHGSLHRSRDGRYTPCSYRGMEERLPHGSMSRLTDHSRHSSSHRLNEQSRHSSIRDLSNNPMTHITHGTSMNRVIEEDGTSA
Chain of Fzd3-mCherry (mouse) (Q61086 23-666): as above

Molecule | level of activated PKA [1] | attraction of TH axons [5] | other results
c1ccc2c(Oc3nc(Nc4ccc(N5CCOCC5)cc4)c4ncn(C5CCCCC5)c4n3)cccc2c1 [Purmorphamine, reference compound] | reduce the level of activated PKA |  | 
Shh-N: recombinant mouse Sonic Hedgehog, amino-terminal peptide (R&D); also secreted by transfected COS-7 cells | reduce the level of activated PKA; also recorded: significant reduction of activated PKA |  | response of pre-crossing commissural axons to Semaphorins [2]: repelled by Sema3B- and Sema3F-secreting cell clumps
Dvl1-EGFP (from UniProt P51141 1-695) |  |  | Fzd3 level at the cell membrane (surface biotinylation, avidin IP, anti-mCherry IB) in HEK293T cells [3]: 3 fold
recombinant Wnt5a (R&D Systems) (ligand) |  |  | commissural axon length after 24 hours on Wnt5a-coated coverslips [4]: 36%
B1 |  | attracts the TH-positive neuron axons | 
B2 |  | strongest effect | β-catenin level and asymmetry in the growth cone [6]: increased the levels of β-catenin throughout the growth cone
